Data on two molecules can be found in US20210122815A1 (AKESO BIOPHARMA, published 2021).

This assay deals with IL-17A (24-155) protein (human, UniProt Q16552 24-155). Put plainly: indirect ELISA screening of hybridomas. In general terms: ELISA stands for enzyme-linked immunosorbent assay.
Chain of IL-17A (24-155) protein (Q16552 24-155): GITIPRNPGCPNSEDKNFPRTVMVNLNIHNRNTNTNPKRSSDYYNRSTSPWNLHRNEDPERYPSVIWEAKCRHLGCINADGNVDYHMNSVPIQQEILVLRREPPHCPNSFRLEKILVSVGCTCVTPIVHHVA

B1: monoclonal murine antibody 13E9 (antibody, V domains shown)
VH: EVKLQESGPGLVKPSQSLSLTCTVTSYSFTSDYAWSWIRQFPGIKLEWMGYITYSGVTSYNPSLKSRISITRDTSKNQFFLQLNSVTTEDTATYYCARADYDSYYTMDYWGQGTSVTVSS
VL: DIQLTQSPLSLPVSLGDQASISCRSSQSLVHSNGNTYLHWYLQKPGQSPRLLIYKVSNRFSGVPDRFSGSGSGTDFTLKISRVEAEDLGVYFCSQSTHFWTFGGGTKLEIK
notes: Mouse hybridoma antibody purified on protein A; also called antibody secreted by hybridoma cell line LT006 (IL-17A-13E9)
With B1, the binding result is “binds”.

B2: monoclonal murine antibody 2G2 (antibody, V domains shown)
VH: EVQLEQSGSELRSPGSSVKLSCKDFDSEVFPIADMSWVRQKPGHGFEWIGDILPSFGRTIYGEKFEDKAKVDADTVSNTAYLELNSLTSEDSAIYYCARGNYGFAYWGQGTLVTVSA
VL: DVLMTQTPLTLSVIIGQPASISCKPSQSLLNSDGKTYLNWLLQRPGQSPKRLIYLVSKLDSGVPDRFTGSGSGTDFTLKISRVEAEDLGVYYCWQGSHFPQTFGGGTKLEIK
notes: Mouse hybridoma antibody purified on protein A; also called antibody secreted by hybridoma cell line LT007 (IL-17A-2G2)
On to B2, for which the binding result is on record as “binds”.
